# In article PMC9891502 (PLOS Pathogens, 2023):
# Numbering of substitutions follows the chain as printed. Numbers in names are those of the source.
# B1: MAB343 (antibody, V domains shown)
# VH: QVQLQESGGGVVQPGRSLRLSCAASGFTFNTYNMHWVRQAPGKGLEWVAVISNDGTYKYSADSVKGRFSISRGNSKNTLYLQMNSLRPDDTAVYYCARDGRSVGGFSGILDPWGQGTLATVSS
# VL: EIVMTQSPATLSLSPGDRATLSCRASQSVGSYLAWYQQKPGQAPRLLIYDASDRATGIPARFSGSGSGTDFTLTISSLEPEDFAVYYCQQRSNWPPLTFGGGTKVEIK
# B2: MAB338 (antibody, V domains shown)
# VH: QVQLVESGGGVVQPGRSLRLSCSGSGFTFSDYNLHWVRQAPGKGLEWVAVISIDGTNKHHADSVKGRFTISRDNSKNTVNLEMSRLKAEDTAVYYCVRDGRSIGGYSGIFDPWGQGTLVTVSS
# VL: B1 VL with M4L, D17E, G30D, S31R, D53Q, T74A, F83V, V105I
# B3: MAB313 (antibody, V domains shown)
# VH: QVQLVQSGGGVIQPGRSLTLSCAASGFTFSAYSLHWVRQAPGKGLQWVAVISFDGNFKHFADSLRGRFTISRDNSKNRFYLQMNGLRGEDTAVYYCARDGRAVDGFSGILDFWGQGTLVSVSS
# VL: B1 VL with D17E, S31R, A34T, Y36F, D53E, S92A
# B4: TRL345 (antibody, V domains shown)
# VH: B1 VH with Q5V, N30S, T31D, N53I, K65A, I70L, G73D, V93I, A119V
# VL: B1 VL with I48M, A51S, D53V, S92N
# notes: also called MAB345
# B5: TRL345 lineage second intermediate (I4) mAb (antibody, V domains shown)
# VH: B1 VH with Q5V, G73D, A119V
# VL: B1 VL with M4L
# B6: I4 (antibody, V domains shown)
# VH: B1 VH with Q5V, G73D, A119V
# VL: B1 VL with M4L
# notes: also called intermediate 4
# B7: I1 (antibody, V domains shown)
# VH: B1 VH with Q5V, G73D, A119V
# VL: B1 VL
# notes: also called intermediate 1
# B8: anti-gB AD-2 mAb 3-25 (antibody, V domains shown)
# VH: QVQLVESGGGVVQPGRSLRLSCAASGFTFSNHGLHWVRQPPGKGLEWVAVVSKDGTNEHYADSVRGRFTISRDNSKNTLYLLMKSLRLEDTAVYYCAREGYCGDDRCYSGQPDYWGQGILVTVSS
# VL: B1 VL with M4L, S7F, D17E, S31R, A51S, D53N, I58V, T74S, Y87F, N93H
# B9: MAB316 (antibody, V domains shown)
# VH: B3 VH with I12V, A31G, Y32F, F57H, R65K, R78T, F79L, M83I, G85D
# VL: B1 VL with D17E, S31R, A34T, Y36F, D53E, I58V
# B10: MAB310 (I3) (antibody, V domains shown)
# VH: B1 VH with Q5V, E6Q, R16T, T28M, V64L, G73D, Q82H, A119V
# VL: B1 VL with M4L, S28T, S31R, P59S
# B11: MAB318 (antibody, V domains shown)
# VH: QVQLVQSGGGVVQPGTSLRLSCAASGFMFNTYNMHWVRQAPGKGLEWVAVISNDGTYKHFADSLKGRFSISRDDSKNTLYLHMNSLRPDDTAIYYCARDGRSVGGFSGILDPWGQGTLVTVSS
# VL: B1 VL with I2V, M4L, S28T, S31R, P59S, S76G, N93S
# B12: TRL345 mAb (antibody, V domains shown)
# VH: B1 VH with Q5V, N30S, T31D, N53I, K65A, I70L, G73D, V93I, A119V
# VL: B1 VL with I48M, A51S, D53V, S92N
# B13: MAB309 (I2) (antibody, V domains shown)
# VH: B11 VH
# VL: B1 VL with M4L, S28T, S31R, P59S, N93S
# B14: 3–25 UCA with VH A33N (antibody, V domains shown)
# VH: QVQLVESGGGVVQPGRSLRLSCAASGFTFSSYNMHWVRQAPGKGLEWVAVISYDGSNKYYADSVKGRFTISRDNSKNTLYLQMNSLRAEDTAVYYCAREGYCSGGSCYSGQPDYWGQGTLVTVSS
# VL: not shown
# B15: 3–25 UCA with VH A33G (antibody, V domains shown)
# VH: B14 VH with N33G
# VL: not shown
# B16: I7 (antibody, V domains shown)
# VH: QVQLVESGGGVVQPGRSLRLSCAASGFTFSGYNLHWVRQAPGKGLEWVAVISIDGSNKHYADSVKGRFTISRDNSKNTLYLQMNSLRAEDTAVYYCARDGRSVGGFSGILDPWGQGTLVTVSS
# VL: not shown
# notes: also called intermediate 7
# B17: TRL345 UCA with VL S30G (antibody, V domains shown)
# VH: B16 VH with G31S, N33A, L34M, I53Y, H59Y
# VL: not shown
# B18: TRL345 UCA with VH A33N (antibody, V domains shown)
# VH: B16 VH with G31S, L34M, I53Y, H59Y
# VL: not shown
# B19: TRL345 UCA with VH A33G (antibody, V domains shown)
# VH: B16 VH with G31S, N33G, L34M, I53Y, H59Y
# VL: not shown
# B20: I8 with VH A33N reverted to germline (antibody, V domains shown)
# VH: B16 VH with G31S, N33A, L34M, I53N, H59Y
# VL: not shown
# B21: I8 with VH Y52aN reverted to germline (antibody, V domains shown)
# VH: B16 VH with G31S, L34M, I53Y, H59Y
# VL: not shown
# B22: TRL345 unmutated common ancestor (UCA) mAb (antibody, V domains shown)
# VH: B16 VH with G31S, N33A, L34M, I53Y, H59Y
# VL: not shown
# notes: also called TRL345 UCA; TRL345.UCA
# B23: MAB319 (antibody, V domains shown)
# VH: B16 VH with A23S, G31D, N57D, Y60H, I70V, L79V, Y80S, N84D, A88P, F106Y
# VL: B1 VL with M4L, D17E, D53E, F83V, S92N
# B24: TRL345 UCA with VH Y52aN (antibody, V domains shown)
# VH: B16 VH with G31S, N33A, L34M, I53N, H59Y
# VL: not shown
# B25: TRL345 UCA (antibody, V domains shown)
# VH: B16 VH with G31S, N33A, L34M, I53Y, H59Y
# VL: not shown
# notes: also called unmutated common ancestor
# B26: I8 with VL S30G reverted to germline (antibody, V domains shown)
# VH: B16 VH with G31S, L34M, I53N, H59Y
# VL: not shown
# B27: TRL345 UCA with VL N53D (antibody, V domains shown)
# VH: B16 VH with G31S, N33A, L34M, I53Y, H59Y
# VL: not shown
# B28: I8 with VL N53D reverted to germline (antibody, V domains shown)
# VH: B16 VH with G31S, L34M, I53N, H59Y
# VL: not shown
# B29: TRL345 lineage intermediate 8 (I8) mAb (antibody, V domains shown)
# VH: B16 VH with G31S, L34M, I53N, H59Y
# VL: not shown
# B30: I5 (antibody, V domains shown)
# VH: B16 VH with A23S, G31D, Y60H, L79V, Y80N, F106Y
# VL: B1 VL with M4L, D17E, D53E, F83V
# notes: also called intermediate 5
# B31: TRL345 I8 (antibody, V domains shown)
# VH: B16 VH with G31S, L34M, I53N, H59Y
# VL: not shown
# Columns and labels:
# gB AD-2S1 peptide [1] = target: gB AD-2S1 peptide (human cytomegalovirus); assay: SPR; details: both partners purified
# gB AD-2S1 peptide [2] = target: gB AD-2S1 peptide (human cytomegalovirus); assay: SPR; details: both partners purified; remark: listed apart in the source
# gB AD-2S1 peptide [3] = target: T1, gB AD-2S1 peptide (Human cytomegalovirus (HHV-5), gB …); assay: SPR; details: both partners purified
# T1 chain: HRANETIYNTTLKYG
# [4] = target: T2, full-length gB (Towne strain) expressed on HEK293T cells (Human cytomegalovirus strain Towne, UniProt P13201); assay: cell-based or functional assay
# [5] = target: T2, full-length gB (Towne strain) expressed …; assay: flow cytometry on cells; design: AUC of a 3-point dilution series: unit not given beside the values; details: one partner purified
# gB AD-2S1 peptide [6] = target: T1, gB AD-2S1 peptide; assay: ELISA; 384-well plates coated overnight at 4°C with 45 ng gB AD-2S1 peptide or gB ectodomain per well; mAbs in a 12-point 3-fold dilution from 1 μg/mL; detected with goat anti-human IgG-HRP; EC50; details: both partners purified
# [7] = target: T3, gB on whole CMV virions of strain TB40/E (Human cytomegalovirus strain TB40/E (gB …, UniProt P13201, strain)); assay: ELISA; details: one partner purified
# T3 construct: also called whole virion CMV strain TB40/E; source: whole TB40/E virions coated on the plate (33 PFU/well)
binder,measurement,setting,value
B1,Kd,gB AD-2S1 peptide [1],1.57 nM
same,kon,gB AD-2S1 peptide [1],1.61e+08 M⁻¹ s⁻¹
B2,Kd,gB AD-2S1 peptide [1],1.99 nM
same,kon,gB AD-2S1 peptide [1],1.36e+08 M⁻¹ s⁻¹
B3,Kd,gB AD-2S1 peptide [1],4.38 nM
same,kon,gB AD-2S1 peptide [1],1.54e+08 M⁻¹ s⁻¹
B4,Kd,gB AD-2S1 peptide [2],0.29 nM
same,kon,gB AD-2S1 peptide [2],1.52e+08 M⁻¹ s⁻¹
B5,other,gB AD-2S1 peptide [3],5 fold
B6,Kd,gB AD-2S1 peptide [1],1.85 nM
same,kon,gB AD-2S1 peptide [1],1.3e+08 M⁻¹ s⁻¹
B7,Kd,gB AD-2S1 peptide [1],1.59 nM
same,kon,gB AD-2S1 peptide [1],1.43e+08 M⁻¹ s⁻¹
B8,Kd,gB AD-2S1 peptide [2],4.42 nM
same,kon,gB AD-2S1 peptide [2],1.49e+08 M⁻¹ s⁻¹
B9,Kd,gB AD-2S1 peptide [1],2.96 nM
same,kon,gB AD-2S1 peptide [1],1.63e+08 M⁻¹ s⁻¹
B10,Kd,gB AD-2S1 peptide [1],3.11 nM
same,kon,gB AD-2S1 peptide [1],1.87e+08 M⁻¹ s⁻¹
B11,Kd,gB AD-2S1 peptide [1],3.68 nM
same,kon,gB AD-2S1 peptide [1],1.33e+08 M⁻¹ s⁻¹
B12,neutralization IC50 on ARPE epithelial cells,[4],< 0.35 µg/mL
same,neutralization IC50 on MRC-5 fibroblasts,[4],< 0.25 µg/mL
same,AUC of a 3-point dilution series,[5],152 ± 20.8
B13,Kd,gB AD-2S1 peptide [1],3.77 nM
same,kon,gB AD-2S1 peptide [1],1.24e+08 M⁻¹ s⁻¹
B14,other,[5],4.4 fold
B15,other,[5],1.4 fold
B16,Kd,gB AD-2S1 peptide [1],4.47 nM
same,kon,gB AD-2S1 peptide [1],1.46e+08 M⁻¹ s⁻¹
B17,fold increase in binding magnitude against the UCA,gB AD-2S1 peptide [6],1.8 fold
same,fold increase in binding magnitude against the UCA,[5],1.2 fold
B18,fold increase in binding magnitude against the UCA,gB AD-2S1 peptide [6],269 fold
same,fold increase in binding magnitude against the UCA,[5],2.5 fold
B19,fold increase in binding against the TRL345 UCA,gB AD-2S1 peptide [6],~15 fold
same,fold increase in binding against the TRL345 UCA,[5],1.1 fold
B20,other,gB AD-2S1 peptide [6],395 fold
same,other,[5],1.4 fold
B21,binding result,gB AD-2S1 peptide [6],binds
same,binding result,[5],binds
B22,AUC of a 3-point dilution series,[5],97.3 ± 21.2
B23,Kd,gB AD-2S1 peptide [1],0.9 nM
same,kon,gB AD-2S1 peptide [1],1.3e+08 M⁻¹ s⁻¹
B24,binding result,[5],binds
B25,Kd,gB AD-2S1 peptide [2],27.6 nM
same,kon,gB AD-2S1 peptide [2],9.73e+07 M⁻¹ s⁻¹
B26,binding result,gB AD-2S1 peptide [6],binds
same,fold decrease in neutralization potency for CMV strain Towne against I8,[4],9 fold
same,binding result,[5],binds
B27,binding result,[5],binds
B28,binding result,gB AD-2S1 peptide [6],binds
same,fold decrease in neutralization potency for CMV strain Towne against I8,[4],2.5 fold
same,binding result,[5],binds
B29,fold increase in ELISA binding magnitude against the UCA,gB AD-2S1 peptide [6],151 fold
same,binding result,[7],binds
same,"neutralization IC50, CMV strain AD169rUL131-GFP (gB genotype 2) on MRC-5 fibroblasts",[4],0.83 µg/mL
same,"neutralization IC50, CMV strain Towne (gB genotype 1) on MRC-5 fibroblasts",[4],2.78 µg/mL
same,AUC of a 3-point dilution series,[5],133 ± 33.3
B30,Kd,gB AD-2S1 peptide [1],5.52 nM
same,kon,gB AD-2S1 peptide [1],1.23e+08 M⁻¹ s⁻¹
B31,Kd,gB AD-2S1 peptide [2],23.2 nM
same,kon,gB AD-2S1 peptide [2],1.33e+08 M⁻¹ s⁻¹
